Like-named read-outs stand apart in the source and are kept apart here.
What was measured:
[1] = Accelerated shaking test, physical stability of mCE-PEG insulin conjugates (fibril formation/precipitation); format: physicochemical; settings: 87 μM, 37° C., shaker 100 strokes/min, n=14 vials
Description: The long term physical stability of PEG-insulin derivatives was examined by their tendency to form fibrils in the accelerated shaking test at a concentration of 87 μM. Aggregation was evaluated in 5 ml borosilicate glass vials (1.2 ml filling volume) at 37° C., in a shaker at 100 strokes/min. Individual vials (n=14) were withdrawn at determined times, and the remaining soluble fraction of particular PEG-insulin derivatives was determined after filtration (PVDF membrane, 0.22 μm) using UV spectroscopy and/or HPLC. In parallel, vials were checked visually on a daily basis for the presence of turbidity and/or a precipitate, which was an independent indication that physical aggregation had occurred.

[2] = tested on: male Sprague-Dawley rats; assay: Biological activity of mCE-PEG insulin conjugates, blood glucose depression in rat after i.v. injection; format: in vivo; settings: from blood glucose AUC vs unmodified human insulin, fresh solution in PBS 20 μg/ml
Description: The biological activity of mCE-PEG-substituted insulin conjugates was tested in a rat model (male Sprague-Dawley rats, 250±50 g) by measuring blood glucose depression levels. The animals were fasted overnight (16 hours) prior to the experiment. In the morning, the rats were anesthetized with intraperitoneally administered sodium pentobarbital. Each animal received an i.v. injection (tail vein) of the particular insulin derivative (20 μg/ml NS/kg). Blood samples were taken from the jugular vein 15 and 5 minutes before injection and 15, 30, 60, 90, 120, 180, and 240 minutes after injection. Blood glucose levels were measured with an Accucheck III blood glucose monitor (Boehringer Mannheim). Bioactivities of insulin derivatives were calculated from AUC (area under curve) values, and the AUC value for the same dose of unmodified human insulin.

[3] = tested on: Inbred A/J and C57BL/10ScSn mice; settings: intraperitoneal, 3 x 5 μg
Description: Inbred A/J and C57BL/10ScSn mice, 12 weeks old, were used throughout the experiments. Mice (10 per experimental group) were immunized intraperitoneally with 5 μg samples on day 0. Samples were injected either in soluble form (dissolved in PBS, pH 7.4) or as a precipitate (alum precipitate). After 3 weeks, the mice were given a secondary injection, and after another 3 weeks, a third injection. Eight days after the last immunization, the mice were exsanguinated and the serum was separated and stored at -80° C. The specific antibody level in the serum was determined by an ELISA indirect method as described in 44 J. Clin. Lab. Immunol. 191-241 (1994).

[4] = strain A/J, Soluble formulation
[5] = strain B10, Soluble formulation

Row | Substance | Days to Precipitation ± S.D. [1] [days] | Biological Activity ± S.D. [2] [IU/mg] | Antibody Titres ([3]; strain A/J, Alum ppt.) | Antibody Titres [3, 4] | Antibody Titres ([3]; strain B10, Alum ppt.) | Antibody Titres [3, 5]
1 | PheB1-mCE-PEG insulin [B1-PEG600 Insulin] | 22.0 ± 4.6 | 22.8 ± 4.2 | 6.1 log2 of serum dilution | 0 log2 of serum dilution | 9.5 log2 of serum dilution | 0 log2 of serum dilution
2 | GlyA1-mCE-PEG insulin [A1-PEG2000 Insulin] | – | 15.7 ± 3.1 | – | – | – | –
3 | GlyA1-LysB29-di-mCE-PEG insulin [A1-B29-(PEG2000)2 Insulin] | – | 10.6 ± 2.1 | – | – | – | –
4 | GlyA1-PheB1-di-mCE-PEG insulin [A1-B1-(PEG2000)2 Insulin] | 19.3 ± 2.3 | – | – | – | – | –
5 | GlyA1-PheB1-LysB29-tri-mCE-PEG insulin [A1-B1-B29-(PEG600)3 Insulin] | 35.9 ± 5.3 | 5.3 ± 1.1 | 0 log2 of serum dilution | 0 log2 of serum dilution | 0 log2 of serum dilution | 0 log2 of serum dilution
6 | PheB1-mCE-PEG insulin [B1-PEG2000 Insulin] | – | 15.4 ± 2.6 | 0 log2 of serum dilution | 0 log2 of serum dilution | 0 log2 of serum dilution | 0 log2 of serum dilution
7 | GlyA1-LysB29-di-mCE-PEG insulin [A1-B29-(PEG600)2 Insulin] | 8.4 ± 1.3 | 19.1 ± 3.6 | – | – | – | –
8 | GlyA1-PheB1-di-mCE-PEG insulin [A1-B1-(PEG600)2 Insulin] | 26.4 ± 4.6 | 16.2 ± 3.2 | – | – | – | –
9 | GlyA1-mCE-PEG insulin [A1-PEG600 Insulin] | – | 22.2 ± 4.2 | – | – | – | –

Reference: patent publication US6323311A, “Synthesis of insulin derivatives” (University of Utah Research Foundation, priority 1999, dated 2001)
